# From IntAct's records for PubMed 12732728
# B1: RNA polymerase II subunit A C-terminal domain phosphatase (Homo sapiens), Q9Y5B0 (parent)
# chain: MEVPAAGRVPAEGAPTAAVAEVRCPGPAPLRLLEWRVAAGAAVRIGSVLAVFEAAASAQSSGASQSRVASGGCVRPARPERRLRSERAGVVRELCAQPGQVVAPGAVLVRLEGCSHPVVMKGLCAECGQDLTQLQSKNGKQQVPLSTATVSMVHSVPELMVSSEQAEQLGREDQQRLHRNRKLVLMVDLDQTLIHTTEQHCQQMSNKGIFHFQLGRGEPMLHTRLRPHCKDFLEKIAKLYELHVFTFGSRLYAHTIAGFLDPEKKLFSHRILSRDECIDPFSKTGNLRNLFPCGDSMVCIIDDREDVWKFAPNLITVKKYVYFQGTGDMNAPPGSRESQTRKKVNHSRGTEVSEPSPPVRDPEGVTQAPGVEPSNGLEKPARELNGSEAATPRDSPRPGKPDERDIWPPAQAPTSSQELAGAPEPQGSCAQGGRVAPGQRPAQGATGTDLDFDLSSDSESSSESEGTKSSSSASDGESEGKRGRQKPKAAPEGAGALAQGSSLEPGRPAAPSLPGEAEPGAHAPDKEPELGGQEEGERDGLCGLGNGCADRKEAETESQNSELSGVTAGESLDQSMEEEEEEDTDEDDHLIYLEEILVRVHTDYYAKYDRYLNKEIEEAPDIRKIVPELKSKVLADVAIIFSGLHPTNFPIEKTREHYHATALGAKILTRLVLSPDAPDRATHLIAARAGTEKVLQAQECGHLHVVNPDWLWSCLERWDKVEEQLFPLRDDHTKAQRENSPAAFPDREGVPPTALFHPMPVLPKAQPGPEVRIYDSNTGKLIRTGARGPPAPSSSLPIRQEPSSFRAVPPPQPQMFGEELPDAQDGEQPGPSRRKRQPSMSETMPLYTLCKEDLESMDKEVDDILGEGSDDSDSEKRRPEEQEEEPQPRKPGTRRERTLGAPASSERSAAGGRGPRGHKRKLNEEDAASESSRESSNEDEGSSSEADEMAKALEAELNDLM
# Variants of: B1
# Conditions: with t2fa_human GTF2F1, P35269
# Chain of t2fa_human GTF2F1, P35269 (P35269 whole entry): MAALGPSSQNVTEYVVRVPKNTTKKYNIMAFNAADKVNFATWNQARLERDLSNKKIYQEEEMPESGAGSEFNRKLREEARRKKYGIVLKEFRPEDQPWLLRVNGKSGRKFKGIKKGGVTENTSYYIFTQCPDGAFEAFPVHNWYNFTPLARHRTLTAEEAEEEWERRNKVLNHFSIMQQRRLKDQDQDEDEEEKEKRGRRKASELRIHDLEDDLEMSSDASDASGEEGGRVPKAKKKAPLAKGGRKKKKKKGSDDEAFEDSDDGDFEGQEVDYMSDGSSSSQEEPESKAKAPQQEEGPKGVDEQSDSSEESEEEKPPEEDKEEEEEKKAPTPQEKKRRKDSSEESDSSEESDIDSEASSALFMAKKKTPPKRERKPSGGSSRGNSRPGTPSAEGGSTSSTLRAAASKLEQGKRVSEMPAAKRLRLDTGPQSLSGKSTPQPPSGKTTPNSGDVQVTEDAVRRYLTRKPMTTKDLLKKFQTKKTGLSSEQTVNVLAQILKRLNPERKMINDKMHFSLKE
row,effect of a mutation on the interaction,Variant
1,decreasing interaction,E956A;L957A
